Consider one molecule from patent publication US20070167369A1, “Novel use of isolated polypeptide comprising four FAS-1 domains, EM1 domain and RGD motif” (KYUNGPOOK NATIONAL UNIVERSITY INDUSTRY-ACADEMIC COOPERATION …, priority 2004, published 2007).

In experiment [1] the test system is FAK-Raf-ERK/AKT signal transduction pathway. As to the kind of experiment: Western blot of phosphorylation of FAK-Raf-ERK/AKT pathway enzymes in HUVECs (Example 12). The format is cell-based, human. To be noted: 20 μM. The method, then: To examine the inhibitory mechanism of the fas-1 domain against endothelial cell proliferation and migration, the amount and activity of enzymes related to a FAK-Raf-ERK/AKT signal transduction pathway that is a typical signal transduction pathway in cells was determined by Western blot analysis on HUVECs treated with the fas-1 domain. Since the signal transduction-related proteins undergo phosphorylation during their activation process, the amount of phosphorylated proteins can be measured to predict their activity.
HUVECs were spread onto a 100-mm plate with 10% FBS-containing M199 medium, and incubated in an incubator at 37° C. for 12 hours. Following this, the culture medium was replaced with fresh medium containing 0.1% FBS and then further incubated for 24 hours. After removing the medium, the cells were washed one time with PBS buffer. The cells were detached from the plate by treatment with Trypsin-EDTA solution. The cells were suspended in 10% FBS-containing medium. Fas-1 protein was added to the cell suspension at final concentration of 20 μM. A control was added with PBS buffer. Thereafter, 3 ml of the cell mixture was taken and spread onto a plate coated with collagen. After 30 minutes, 60 minutes and 90 minutes, respectively, the medium was removed from the plate, and the cells were washed one time with PBS buffer. The cells were added with 200 μl of cell lysis buffer and left to stand on ice. The cell lysate was centrifuged at 12,000 rpm for 10 minutes at 4° C., and the supernatant containing a soluble protein was collected. Next, to quantify the concentration of the protein, a Bradford assay (BioRad, Hercules, Calif.) was performed using BSA as the standard protein. 30 μg of each of the sample proteins was electrophoresed on 10% SDS-polyacrylamide gel. The protein on the gel was transferred onto a nitrocellulose membrane, using electrophoresis. The protein transferred to the membrane was reacted with 5% skimmed milk for one hour to block nonspecific protein binding. Following this, it was reacted with the following various antibodies to signal transduction proteins: FAK (BD Science, Franklin Lakes, N.J., USA), pFAK (phosphorylated FAK; Santa Cruz Co., CA, USA), ERK (Sanca Cruz Co., CA, USA), pERK (phosphorylated ERK; Santa Cruz Co., CA, USA), AKT (Cell Signaling Technology Co., Beverly, Mass.), pAKT (phosphorylated AKT; Cell Signaling Technology Co., Beverly, Mass.), Raf1 (Santa Cruz Co., CA, USA) and pRaf1 (phosphorylated Raf1, Santa Cruz Co., CA, USA). The antibodies had been diluted in TBST (50 mM Tris-HCl, pH 7.6, 150 mM NaCl, 0.1% Tween 20) before use. The binding reaction with the antibodies was performed for at least 12 hours in a refrigeration condition. After completion of the reaction, the membrane was washed three times with TBST solution. Thereafter, the membrane was added with HRP-conjugated secondary antibodies (HRP-conjugated-anti-mouse IgG and HRP-conjugated-anti-rabbit IgG; Santa Cruz Co., CA, USA), and a binding reaction with the secondary antibodies was performed at room temperature for one hour. Next, the membrane was washed three times, and then added with 1 ml of ECL as chemiluminescent solution, so that sites where antigen-antibody reaction occurred were visualized by fluorescence. The membrane was exposed to an X-ray film.
(In general: In western blotting, separated proteins are transferred to a membrane and probed.)

Experiment [2] has as its system β3/HEK293 cells. As to the kind of experiment: Apoptosis by annexin V staining, β3/HEK293 cells expressing αvβ3 integrin (Example 8). To be noted: annexin V FACS. The experiment is classed as cell-based. The method, then: To identify an integrin that mediates the induction of endothelial cell apoptosis by the fas-1 domain, the present inventors performed a test using HEK293 cells (β3/HEK293 and β5/HEK293) which had been transfected such as to express αvβ3 integrin or αvβ5 integrin.
For this purpose, a β3/HEK293 cell that expresses αvβ3 integrin was prepared in the following manner. In order to construct a human β3 integrin expression vector, RT-PCR using human placenta poly(A)^+ RNA as a template was first performed to produce 2.4-kb β3 cDNA (Chandrika, S. K. et al., J. Biol. Chem., 272:16390-16397, 1997). The amplified β3 cDNA was digested with HindIII/XbaI, and then cloned into a pcDNA3 vector (Invitrogen). The resulting vector was named “β3/pcDNA3”. Thereafter, 1 μg of the β3/pcDNA3 vector was introduced into HEK293 cells (ATCC, catalog No. CRL 1573) by lipofectamin (Gibco). As the vector contains a G418 selection marker, a stable transfected cell was screened using 1 mg/ml of G418. The cell transfected with the β3/pcDNA3 vector was named “β3/HEK293”.
pc/HEK293 cells, β3/HEK293 cells and β5/HEK293 cells were stained with annexin V to identify an integrin that mediates the induction of endothelial cell apoptosis by the fas-1 domain. Each of the cells was suspended in medium at a density of 5×10^5 cells/ml, added to each well of 6-well plated and incubated at 37° C. overnight. […]

Setting [3] is: collagen-coated plate, 30, 60, 90 minutes.

B1: fas-1 domain: recombinant protein containing the fourth fas-1 domain of human βig-h3 (SEQ ID NO: 64) (protein, listed as Homo sapiens)
chain: MGTVMDVLKGDNRFSMLVAAIQSAGLTETLNREGVYTVFAPTNEAFRALPPRERSRLLGDAKELANILKYHIGDEILVSGGIGALVRLKSLQGDKLEVSLKNNVVSVNKEPVAEPDIMATNGVVHVITNVL
As to B1, the “absolute amounts of FAK, Raf1, ERK and AKT enzymes in the cells vs control” value in experiment [1] is on record as “not significantly different”. Further, in experiment [1] (setting [3]), the “phosphorylation of AKT” value was “greatly reduced as compared to that of the control”, the “phosphorylation of ERK” value is “no increase in phosphorylation until 90 minutes”, the “phosphorylation of FAK” value is “reduced as compared to the control” and the “phosphorylation of Raf1” value was “greatly reduced as compared to that of the control”. For the same molecule, the “induction of apoptosis of β3/HEK293 cells” value in experiment [2] is reported as “induced by the fas-1 domain in a dose-dependent manner”.
